Values joined by “and” are separate entries in the source; they are usually repeats but may differ in a detail not shown here. Equal values may be shown once.
Assays:
[1] = target: the molecule itself; assay: cryo-EM structure
[2] = target: the molecule itself; assay: cross-linking
[3] = target: the molecule itself; assay: negative stain EM

B1: Vipp1/IM30 from Nostoc punctiforme, full-length (amino acids 1-258) (natural protein)
chain: MGLFDRIKRVVSSNLNDLVNKAEDPEKMLEQAILEMQEDLVQLRQGVAQAIAAQKRSEKQYNDAQNEINKWQRNAQLALQKGDENLARQALERKKTYTDTSAALKASLDTQSTQVETLKRNLIQLESKISEAKTKKEMLKARITTAKAQEQLQGMVRGMNTSSAMSAFERMEEKVLMQESRAQALGELAGADLETQFAQLEGGSDVDDELAALKAQMLPPATPVTQAQLPPQQETTPAKSNEVVDAELDSLRKQLDQL
stoichiometry N [1]: 84 subunits and 55 subunits to 119 subunits (2×)

B2: Vipp1_(L86C/L193C) (natural protein)
chain: MGLFDRIKRVVSSNLNDLVNKAEDPEKMLEQAILEMQEDLVQLRQGVAQAIAAQKRSEKQYNDAQNEINKWQRNAQLALQKGDENCARQALERKKTYTDTSAALKASLDTQSTQVETLKRNLIQLESKISEAKTKKEMLKARITTAKAQEQLQGMVRGMNTSSAMSAFERMEEKVLMQESRAQALGELAGADCETQFAQLEGGSDVDDELAALKAQMLPPATPVTQAQLPPQQETTPAKSNEVVDAELDSLRKQLDQL
binding result [2]: binds

B3: Vipp1Δα6_(1-219) (domain or fragment)
chain: MGLFDRIKRVVSSNLNDLVNKAEDPEKMLEQAILEMQEDLVQLRQGVAQAIAAQKRSEKQYNDAQNEINKWQRNAQLALQKGDENLARQALERKKTYTDTSAALKASLDTQSTQVETLKRNLIQLESKISEAKTKKEMLKARITTAKAQEQLQGMVRGMNTSSAMSAFERMEEKVLMQESRAQALGELAGADLETQFAQLEGGSDVDDELAALKAQMLP
binding result [3]: binds

— doi:10.1101/2020.08.13.249979 (bioRxiv, 2020)
